Laboratory results published in patent US20140087995A1 (published 2014).
Blank lines part the entries; values can stand above or below the binder they belong to. Numbered stars: 1 amine (or outer) side, 2 acyl side, 3 side chain; on linkers, the order of the positions; unused ones are H or OH. Bridge positions count the residues as written; N and C are the ends. Side chains are listed from the residue outwards. Ends that are not written are not given here. * marks the point of attachment. C20 diacid = O=C(O)CCCCCCCCCCCCCCCCCCC(=O)*; γGlu = O=C(O)[C@H](CCC(=O)[*:2])N[*:1]; AEEA = NCCOCCOCC(=O)O

How the values were obtained:
[1] = target: T1, human calcitonin receptor (human, UniProt P30988 25-474); assay: ratio of IC50 at hCTR to IC50 at the human amylin receptor (reference)
T1 construct: whole, on cells; also called hCTR; hCT
T1 sequence (looked up): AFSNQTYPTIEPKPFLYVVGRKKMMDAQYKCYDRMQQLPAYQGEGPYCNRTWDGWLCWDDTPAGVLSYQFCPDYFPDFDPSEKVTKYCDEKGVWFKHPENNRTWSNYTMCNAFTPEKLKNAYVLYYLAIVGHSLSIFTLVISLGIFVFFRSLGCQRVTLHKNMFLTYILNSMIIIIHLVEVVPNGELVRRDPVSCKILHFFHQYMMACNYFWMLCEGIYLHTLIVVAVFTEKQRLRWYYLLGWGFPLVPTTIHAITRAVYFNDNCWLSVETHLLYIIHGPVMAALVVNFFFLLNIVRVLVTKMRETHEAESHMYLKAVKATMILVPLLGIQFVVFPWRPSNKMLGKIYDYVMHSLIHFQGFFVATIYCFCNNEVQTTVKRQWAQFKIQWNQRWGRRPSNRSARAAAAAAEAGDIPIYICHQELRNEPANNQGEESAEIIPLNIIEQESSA
Method in brief: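 Competition binding by SPA with cell membranes (35 ng/μL) and SPA beads in 50 mM Hepes pH 7.4 with 1 mM CaCl2, 5 mM MgCl2, 0.1% OA and 0.02% Tween20. Incubated 120 min at 25 °C with shaking, then counted.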

[2] = target: T1, human calcitonin receptor; assay: SPA competition binding, membranes with human calcitonin receptor, displacement of 125I-calcitonin (Assay VII)
Method in brief: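 BHK hCTR membranes 35 ng/μL + SPA beads 0.05 mg/well; buffer 50 mM Hepes pH 7.4, 1 mM CaCl2, 5 mM MgCl₂, 0.1% OA, 0.02% Tween20. 120 min, 25° C., shaking. Scintillation count; IC50 by one-site binding competition.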

[3] = target: T2, human amylin receptor (amylin 3(a) receptor: human calcitonin receptor co-expressed with RAMP-3) (human, UniProt P30988 25-474; O60896 24-148, limits assumed); assay: cell-based or functional assay
T2 sequence (looked up) 1: T1 sequence (looked up)
T2 sequence (looked up) 2: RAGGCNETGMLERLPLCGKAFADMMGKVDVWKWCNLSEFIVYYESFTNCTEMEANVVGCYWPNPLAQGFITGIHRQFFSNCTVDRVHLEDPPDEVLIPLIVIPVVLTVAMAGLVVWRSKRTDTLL

[4] = target: T3, human calcitonin receptor (human, UniProt P30988 25-474); assay: cell-based or functional assay
T3 sequence (looked up): T1 sequence (looked up)

Ratio hCT/hAmylin binding [1]: 26.8 | IC50 [2]: 14.8 nM
B1: N^ε-[2-[2-[2-[[(4S)-4-carboxy-4-(19-carboxynonadecanoylamino)butanoyl]amino]ethoxy]ethoxy]acetyl]Lys[Arg1,Arg17,Pro21,Pro27,His35]-h-amylin (peptide)
peptide: K([AEEA-γGlu-C20 diacid])RCNTATCATQRLANFLRHSSPNFGAIPSSTNVGSHTY-NH2
modifications: disulfide 3-8; N-terminus assumed
SMILES: CC[C@H](C)[C@H](NC(=O)[C@H](C)NC(=O)CNC(=O)[C@H](Cc1ccccc1)NC(=O)[C@H](CC(N)=O)NC(=O)[C@@H]1CCCN1C(=O)[C@H](CO)NC(=O)[C@H](CO)NC(=O)[C@H](Cc1c[nH]cn1)NC(=O)[C@H](CCCNC(=N)N)NC(=O)[C@H](CC(C)C)NC(=O)[C@H](Cc1ccccc1)NC(=O)[C@H](CC(N)=O)NC(=O)[C@H](C)NC(=O)[C@H](CC(C)C)NC(=O)[C@H](CCCNC(=N)N)NC(=O)[C@H](CCC(N)=O)NC(=O)[C@@H](NC(=O)[C@H](C)NC(=O)[C@@H]1CSSC[C@H](NC(=O)[C@H](CCCNC(=N)N)NC(=O)[C@@H](N)CCCCNC(=O)COCCOCCNC(=O)CC[C@H](NC(=O)CCCCCCCCCCCCCCCCCCC(=O)O)C(=O)O)C(=O)N[C@@H](CC(N)=O)C(=O)N[C@@H]([C@@H](C)O)C(=O)N[C@@H](C)C(=O)N[C@@H]([C@@H](C)O)C(=O)N1)[C@@H](C)O)C(=O)N1CCC[C@H]1C(=O)N[C@@H](CO)C(=O)N[C@@H](CO)C(=O)N[C@H](C(=O)N[C@@H](CC(N)=O)C(=O)N[C@H](C(=O)NCC(=O)N[C@@H](CO)C(=O)N[C@@H](Cc1c[nH]cn1)C(=O)N[C@H](C(=O)N[C@@H](Cc1ccc(O)cc1)C(N)=O)[C@@H](C)O)C(C)C)[C@@H](C)O
notes: extended by one residue at the N-terminus; also called compound 45

hAmylin-R funct. EC50 [3]: 94 pM | hCTR funct. EC50 [4]: 1250 pM
B2: N^ε1-[2-[2-[2-[[(4S)-4-carboxy-4-(19-carboxynonadecanoylamino)butanoyl]amino]ethoxy]ethoxy]acetyl]-[His14,Arg17,Pro21,Pro27]-h-amylin (peptide)
peptide: K([AEEA-γGlu-C20 diacid])CNTATCATQRLAHFLRHSSPNFGAIPSSTNVGSNTY-NH2
modifications: disulfide 2-7; N-terminus assumed
SMILES: CC[C@H](C)[C@H](NC(=O)[C@H](C)NC(=O)CNC(=O)[C@H](Cc1ccccc1)NC(=O)[C@H](CC(N)=O)NC(=O)[C@@H]1CCCN1C(=O)[C@H](CO)NC(=O)[C@H](CO)NC(=O)[C@H](Cc1c[nH]cn1)NC(=O)[C@H](CCCNC(=N)N)NC(=O)[C@H](CC(C)C)NC(=O)[C@H](Cc1ccccc1)NC(=O)[C@H](Cc1c[nH]cn1)NC(=O)[C@H](C)NC(=O)[C@H](CC(C)C)NC(=O)[C@H](CCCNC(=N)N)NC(=O)[C@H](CCC(N)=O)NC(=O)[C@@H](NC(=O)[C@H](C)NC(=O)[C@@H]1CSSC[C@H](NC(=O)[C@@H](N)CCCCNC(=O)COCCOCCNC(=O)CC[C@H](NC(=O)CCCCCCCCCCCCCCCCCCC(=O)O)C(=O)O)C(=O)N[C@@H](CC(N)=O)C(=O)N[C@@H]([C@@H](C)O)C(=O)N[C@@H](C)C(=O)N[C@@H]([C@@H](C)O)C(=O)N1)[C@@H](C)O)C(=O)N1CCC[C@H]1C(=O)N[C@@H](CO)C(=O)N[C@@H](CO)C(=O)N[C@H](C(=O)N[C@@H](CC(N)=O)C(=O)N[C@H](C(=O)NCC(=O)N[C@@H](CO)C(=O)N[C@@H](CC(N)=O)C(=O)N[C@H](C(=O)N[C@@H](Cc1ccc(O)cc1)C(N)=O)[C@@H](C)O)C(C)C)[C@@H](C)O
notes: also called compound 69

Ratio hCT/hAmylin binding [1]: 17.7 | IC50 [2]: 4.87 nM
B3: N^ε-[(4S)-4-carboxy-4-(19-carboxynonadecanoylamino)butanoyl]Lys[Arg1,Arg17,Pro21,Pro27,His35]-h-amylin (peptide)
peptide: K([γGlu-C20 diacid])RCNTATCATQRLANFLRHSSPNFGAIPSSTNVGSHTY-NH2
modifications: disulfide 3-8; N-terminus assumed
SMILES: CC[C@H](C)[C@H](NC(=O)[C@H](C)NC(=O)CNC(=O)[C@H](Cc1ccccc1)NC(=O)[C@H](CC(N)=O)NC(=O)[C@@H]1CCCN1C(=O)[C@H](CO)NC(=O)[C@H](CO)NC(=O)[C@H](Cc1c[nH]cn1)NC(=O)[C@H](CCCNC(=N)N)NC(=O)[C@H](CC(C)C)NC(=O)[C@H](Cc1ccccc1)NC(=O)[C@H](CC(N)=O)NC(=O)[C@H](C)NC(=O)[C@H](CC(C)C)NC(=O)[C@H](CCCNC(=N)N)NC(=O)[C@H](CCC(N)=O)NC(=O)[C@@H](NC(=O)[C@H](C)NC(=O)[C@@H]1CSSC[C@H](NC(=O)[C@H](CCCNC(=N)N)NC(=O)[C@@H](N)CCCCNC(=O)CC[C@H](NC(=O)CCCCCCCCCCCCCCCCCCC(=O)O)C(=O)O)C(=O)N[C@@H](CC(N)=O)C(=O)N[C@@H]([C@@H](C)O)C(=O)N[C@@H](C)C(=O)N[C@@H]([C@@H](C)O)C(=O)N1)[C@@H](C)O)C(=O)N1CCC[C@H]1C(=O)N[C@@H](CO)C(=O)N[C@@H](CO)C(=O)N[C@H](C(=O)N[C@@H](CC(N)=O)C(=O)N[C@H](C(=O)NCC(=O)N[C@@H](CO)C(=O)N[C@@H](Cc1c[nH]cn1)C(=O)N[C@H](C(=O)N[C@@H](Cc1ccc(O)cc1)C(N)=O)[C@@H](C)O)C(C)C)[C@@H](C)O
notes: extended by one residue at the N-terminus; also called compound 44

Ratio hCT/hAmylin binding [1]: 48.9 | IC50 [2]: 9.53 nM
B4: N^-1-[(4S)-4-carboxy-4-(19-carboxynonadecanoylamino)butanoyl]-Gly[Arg1,Arg17,Pro21,Pro27]-h-amylin (peptide)
peptide: {C20 diacid-γGlu}-GRCNTATCATQRLANFLRHSSPNFGAIPSSTNVGSNTY-NH2
modifications: disulfide 3-8
SMILES: CC[C@H](C)[C@H](NC(=O)[C@H](C)NC(=O)CNC(=O)[C@H](Cc1ccccc1)NC(=O)[C@H](CC(N)=O)NC(=O)[C@@H]1CCCN1C(=O)[C@H](CO)NC(=O)[C@H](CO)NC(=O)[C@H](Cc1c[nH]cn1)NC(=O)[C@H](CCCNC(=N)N)NC(=O)[C@H](CC(C)C)NC(=O)[C@H](Cc1ccccc1)NC(=O)[C@H](CC(N)=O)NC(=O)[C@H](C)NC(=O)[C@H](CC(C)C)NC(=O)[C@H](CCCNC(=N)N)NC(=O)[C@H](CCC(N)=O)NC(=O)[C@@H](NC(=O)[C@H](C)NC(=O)[C@@H]1CSSC[C@H](NC(=O)[C@H](CCCNC(=N)N)NC(=O)CNC(=O)CC[C@H](NC(=O)CCCCCCCCCCCCCCCCCCC(=O)O)C(=O)O)C(=O)N[C@@H](CC(N)=O)C(=O)N[C@@H]([C@@H](C)O)C(=O)N[C@@H](C)C(=O)N[C@@H]([C@@H](C)O)C(=O)N1)[C@@H](C)O)C(=O)N1CCC[C@H]1C(=O)N[C@@H](CO)C(=O)N[C@@H](CO)C(=O)N[C@H](C(=O)N[C@@H](CC(N)=O)C(=O)N[C@H](C(=O)NCC(=O)N[C@@H](CO)C(=O)N[C@@H](CC(N)=O)C(=O)N[C@H](C(=O)N[C@@H](Cc1ccc(O)cc1)C(N)=O)[C@@H](C)O)C(C)C)[C@@H](C)O
notes: extended by one residue at the N-terminus; also called compound 46

Ratio hCT/hAmylin binding [1]: 44.9 | IC50 [2]: 15.5 nM
B5: N^-1-[(4S)-4-carboxy-4-(19-carboxynonadecanoylamino)butanoyl]-Gly[Arg1,Arg17,Pro21,Pro27,His35]-h-amylin (peptide)
peptide: {C20 diacid-γGlu}-GRCNTATCATQRLANFLRHSSPNFGAIPSSTNVGSHTY-NH2
modifications: disulfide 3-8
SMILES: CC[C@H](C)[C@H](NC(=O)[C@H](C)NC(=O)CNC(=O)[C@H](Cc1ccccc1)NC(=O)[C@H](CC(N)=O)NC(=O)[C@@H]1CCCN1C(=O)[C@H](CO)NC(=O)[C@H](CO)NC(=O)[C@H](Cc1c[nH]cn1)NC(=O)[C@H](CCCNC(=N)N)NC(=O)[C@H](CC(C)C)NC(=O)[C@H](Cc1ccccc1)NC(=O)[C@H](CC(N)=O)NC(=O)[C@H](C)NC(=O)[C@H](CC(C)C)NC(=O)[C@H](CCCNC(=N)N)NC(=O)[C@H](CCC(N)=O)NC(=O)[C@@H](NC(=O)[C@H](C)NC(=O)[C@@H]1CSSC[C@H](NC(=O)[C@H](CCCNC(=N)N)NC(=O)CNC(=O)CC[C@H](NC(=O)CCCCCCCCCCCCCCCCCCC(=O)O)C(=O)O)C(=O)N[C@@H](CC(N)=O)C(=O)N[C@@H]([C@@H](C)O)C(=O)N[C@@H](C)C(=O)N[C@@H]([C@@H](C)O)C(=O)N1)[C@@H](C)O)C(=O)N1CCC[C@H]1C(=O)N[C@@H](CO)C(=O)N[C@@H](CO)C(=O)N[C@H](C(=O)N[C@@H](CC(N)=O)C(=O)N[C@H](C(=O)NCC(=O)N[C@@H](CO)C(=O)N[C@@H](Cc1c[nH]cn1)C(=O)N[C@H](C(=O)N[C@@H](Cc1ccc(O)cc1)C(N)=O)[C@@H](C)O)C(C)C)[C@@H](C)O
notes: extended by one residue at the N-terminus; also called compound 47
